Reference: US20220112308A1 (Genentech, published 2022)

B1: anti-KRas antibody 1A5 (antibody, human IgG1, V domains shown)
VH: EVQLVESGGGLVQPGGSLRLSCAASGFTFSSYSMNWVRQAPGKGLEWVSYISSSSSTIYYADSVKGRFTISRDNAKNSLYLQMNSLRAEDTAVYYCARGFYVRNWFDPWGQGTLVTVSS
VL: AIQMTQSPSSLSASVGDRVTITCRASQGIRNDLGWYQQKPGKAPKLLIYAASSLQSGVPSRFSGSGSGTDFTLTISSLQPEDFATYYCLQDHDYPLTFGQGTKVEIK
notes: also called Class I anti-KRas antibody; 1A5-488 (labelled form in FACS)
B2: anti-KRas antibody 1D6 (antibody, human IgG1, V domains shown)
VH: EVQLVESGGGLVQPGGSLRLSCAASGFTFSSYAMSWVRQAPGKGLEWVSAISSSGSSTYYADSVKGRFTISRDNSKNTLYLQMNSLRAEDTAVYYCARDQGGYGYPGESWFDYWGQGTLVTVSS
VL: DIQMTQSPSSLSASVGDRVTITCRASQGISSYLAWYQQKPGKAPKLLIYAASSLQSGVPSRFSGSGSGTDFTLTISSLQPEDFATYYCQQYYSYPFTFGQGTKVEIK
notes: also called Class I anti-KRas antibody
B3: anti-KRas antibody 3A12 (antibody, V domains shown)
VH: EVQLVESGGGLVQPGGSLRLSCAASGFTFSSYSMNWVRQAPGKGLEWVSYISSSSSTIYYADSVKGRFTISRDNAKNSLYLQMNSLRAEDTAVYYCARGKGIVGWGFFGMDVWGQGTLVTVSS
VL: SVLTQPPSVSAAPGQKVTISCSGSSSNIGNNYVSWYQQLPGTAPKLLIYDNNKRPSGIPDRFSGSKSGTSATLGITGLQTGDEADYYCGTWDNSLSVWVFGGGTKLTVL
notes: also called Class II anti-KRas antibody
B4: anti-KRas antibody 1B7 (antibody, human IgG1, V domains shown)
VH: EVQLVQSGAEVKKPGSSVKVSCKASGGTFSSYAISWVRQAPGQGLEWMGGIIPIFGTANYAQKFQGRVTITADESTSTAYMELSSLRSEDTAVYYCARYYDFWSGYPGGLFDVWGQGTLVTVSS
VL: SVLTQPPSVSAAPGQKVTISCSGSSSNIGNNYVSWYQQLPGTAPKLLIYDNNKRPSGIPDRFSGSKSGTSATLGITGLQTGDEADYYCGTWDSSLTGWVFGGGTKLTVL
notes: as for B2
B5: anti-KRas antibody 1A6 (antibody, human IgG1, V domains shown)
VH: EVQLVQSGAEVKKPGSSVKVSCKASGGTFSSYAISWVRQAPGQGLEWMGGIIPIFGTANYAQKFQGRVTITADESTSTAYMELSSLRSEDTAVYYCARYYDFWSGYPGGLFDVWGQGTLVTVSS
VL: SVLTQPPSVSAAPGQKVTISCSGSSSNIGNNYVSWYQQLPGTAPKLLIYDNNKRPSGIPDRFSGSKSGTSATLGITGLQTGDEADYYCGTWDSSLTGYVFGGGTKLTVL
notes: as for B2
B6: anti-KRas antibody 2H11 (antibody, human IgG1, V domains shown)
VH: EVQLQESGPGLVKPPGTLSLTCAVSGGSISSSNWWSWVRQPPGKGLEWIGEIYHSGSTNYNPSLKSRVTISVDKSKNQFSLKLSSVTAADTAVYYCARGSSSWYDLGPFDYWGQGTLVTVSS
VL: not shown
notes: also called Class II anti-KRas antibody; CLAMP
B7: anti-KRas antibody 2C1 (antibody, V domains shown)
VH: EVQLVESGGGLVKPGGSLRLSCAASGFTFSSYSMNWVRQAPGKGLEWVSSISSSSSYIYYADSVKGRFTISRDNAKNSLYLQMNSLRAEDTAVYYCARAFYSYMDVWGQGTLVTVSS
VL: not shown
notes: as for B2
B8: anti-KRas antibody 1E5 (antibody, V domains shown)
VH: EVQLVESGGGLVKPGGSLRLSCAASGFTFSSYSMNWVRQAPGKGLEWVSSISSSSSYIYYADSVKGRFTISRDNAKNSLYLQMNSLRAEDTAVYYCARTNNYGYRYFDYWGQGTLVTVSS
VL: LTQDPAVSVALGQTVRITCQGDSLRSYYASWYQQKPGQAPVLVIYGKNNRPSGIPDRFSGSSSGNTASLTITGAQAEDEADYYCNSRDSSGNHWVFGGGTKLTVL
notes: as for B3
B9: anti-KRas antibody 2A3 (antibody, human IgG1, V domains shown)
VH: EVQLVESGGGLVKPGGSLRLSCAASGFTFSSYSMNWVRQAPGKGLEWVSSISSSSSYIYYADSVKGRFTISRDNAKNSLYLQMNSLRAEDTAVYYCARATSSGYYYFDYWGQGTLVTVSS
VL: ELTQDPAVSVALGQTVRITCQGDSLRSYYASWYQQKPGQAPVLVIYGKNNRPSGIPDRFSGSSSGNTASLTITGAQAEDEADYYCNSRDSTDNHLWVFGGGTKLTVL
notes: as for B3
B10: anti-KRas antibody 1F4 (antibody, human IgG1, V domains shown)
VH: EVQLVESGGGLVQPGGSLRLSCAASGFTFSSYSMNWVRQAPGKGLEWVSYISSSSSTIYYADSVKGRFTISRDNAKNSLYLQMNSLRAEDTAVYYCARSFGPYAFDVWGQGTLVTVSS
VL: not shown

How the values were obtained:
[1] = target: T1, KRas^WT-GDP (recombinant) (human, UniProt P01116-2 2-169, GDP bound); test: SPR, IgG captured by anti-human IgG1 Fc, KRas in solution, 25 C, 1:1 Langmuir fit
Protocol: (§1) SPR experiments were carried out on the Mass-1 (Bruker) at 25° C. using HBS-P+(GE Healthcare) running buffer. 1 μg/mL of the anti-KRas antibodies were captured using an anti-HuIgG1 Fc capture kit (GE Healthcare). […] KRas^G12C-GDP was titrated using a dilution series from 5000-0 nM. KRas^G12C-GDP+ARS1620 was titrated using a dilution series from 1000-0 nM. KRas^G12C-GDP+ARS853 was titrated using a dilution series from 200-0 nM. KRasWT-GDP was titrated using a dilution series from 2000-0 nM. Sensorgrams were fit to a 1:1 Langmuir model to identify kinetic parameters.

[2] = target: T1, KRas^WT-GDP (recombinant); test: SPR, IgG captured, KRas as analyte
Protocol: as §1

[3] = target: KRas^WT-GTP (recombinant) (human, UniProt P01116-2 2-169, GTP bound as printed in Table 1B); test: SPR, KRas bound to GTP (Table 1B)

Row | Binder | Kd [1] [nM] | binding result [2] | Kd [3] [nM]
1 | B1 | 159 | – | –
2 | B2 | – | no binding (tested: titrated 2000-0 nM) | –
3 | B3 | 24 | – | –
4 | B4 | – | no binding (tested: titrated 2000-0 nM) | –
5 | B5 | – | no binding (tested: titrated 2000-0 nM) | –
6 | B6 | 42 | – | –
7 | B7 | – | no binding (tested: titrated 2000-0 nM) | –
8 | B8 | 411 | – | –
9 | B9 | 71 | – | 7
10 | B10 | – | no binding (tested: titrated 2000-0 nM) | –
